Data published in publication PMC7264160.

Molecular target: Nascent polypeptide-associated complex (NAC) protein of Picrophilus torridus (Picrophilus torridus)
Assay: SEC; HiPrep S-200 HR column; elution compared with protein standards run on this column

With “Nascent polypeptide-associated complex (NAC) protein of Picrophilus torridus (natural protein)” the stoichiometry N was 2.
